T1: Flag-tagged T-bet (wild type), immunoprecipitated from 293T cells (UniProt Q9JKD8)
T1 sequence: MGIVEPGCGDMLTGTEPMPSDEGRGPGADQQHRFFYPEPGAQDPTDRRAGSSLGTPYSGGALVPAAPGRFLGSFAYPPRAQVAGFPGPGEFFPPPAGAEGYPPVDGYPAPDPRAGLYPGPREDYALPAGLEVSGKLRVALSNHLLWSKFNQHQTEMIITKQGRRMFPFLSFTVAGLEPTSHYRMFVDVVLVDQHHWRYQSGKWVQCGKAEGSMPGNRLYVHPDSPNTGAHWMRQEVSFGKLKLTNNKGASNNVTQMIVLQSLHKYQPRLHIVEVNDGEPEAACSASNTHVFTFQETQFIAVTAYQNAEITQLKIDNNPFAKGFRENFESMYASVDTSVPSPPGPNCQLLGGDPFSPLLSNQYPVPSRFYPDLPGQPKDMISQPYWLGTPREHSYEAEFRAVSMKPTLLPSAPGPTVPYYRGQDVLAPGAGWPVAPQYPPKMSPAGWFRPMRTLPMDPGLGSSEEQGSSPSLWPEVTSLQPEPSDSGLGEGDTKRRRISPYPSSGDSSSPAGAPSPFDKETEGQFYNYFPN

T2: Flag-tagged T-bet S498A control mutant, immunoprecipitated from 293T cells (UniProt Q9JKD8)
T2 sequence: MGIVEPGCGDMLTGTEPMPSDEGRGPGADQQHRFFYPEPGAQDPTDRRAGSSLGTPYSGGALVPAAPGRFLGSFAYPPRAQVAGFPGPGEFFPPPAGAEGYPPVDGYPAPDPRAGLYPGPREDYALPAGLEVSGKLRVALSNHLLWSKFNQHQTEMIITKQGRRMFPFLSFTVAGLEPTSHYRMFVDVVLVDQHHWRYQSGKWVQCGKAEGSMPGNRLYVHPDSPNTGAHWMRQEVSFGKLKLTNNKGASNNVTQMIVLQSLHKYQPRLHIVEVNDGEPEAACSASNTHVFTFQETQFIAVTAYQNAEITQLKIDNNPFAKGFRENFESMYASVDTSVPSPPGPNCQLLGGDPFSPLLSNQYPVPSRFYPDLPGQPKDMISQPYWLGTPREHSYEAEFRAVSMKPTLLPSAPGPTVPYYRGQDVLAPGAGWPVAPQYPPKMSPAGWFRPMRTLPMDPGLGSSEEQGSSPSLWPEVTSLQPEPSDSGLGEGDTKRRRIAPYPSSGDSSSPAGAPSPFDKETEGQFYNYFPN

T3: Flag-tagged T-bet S508A mutant, immunoprecipitated from 293T cells (UniProt Q9JKD8)
T3 sequence: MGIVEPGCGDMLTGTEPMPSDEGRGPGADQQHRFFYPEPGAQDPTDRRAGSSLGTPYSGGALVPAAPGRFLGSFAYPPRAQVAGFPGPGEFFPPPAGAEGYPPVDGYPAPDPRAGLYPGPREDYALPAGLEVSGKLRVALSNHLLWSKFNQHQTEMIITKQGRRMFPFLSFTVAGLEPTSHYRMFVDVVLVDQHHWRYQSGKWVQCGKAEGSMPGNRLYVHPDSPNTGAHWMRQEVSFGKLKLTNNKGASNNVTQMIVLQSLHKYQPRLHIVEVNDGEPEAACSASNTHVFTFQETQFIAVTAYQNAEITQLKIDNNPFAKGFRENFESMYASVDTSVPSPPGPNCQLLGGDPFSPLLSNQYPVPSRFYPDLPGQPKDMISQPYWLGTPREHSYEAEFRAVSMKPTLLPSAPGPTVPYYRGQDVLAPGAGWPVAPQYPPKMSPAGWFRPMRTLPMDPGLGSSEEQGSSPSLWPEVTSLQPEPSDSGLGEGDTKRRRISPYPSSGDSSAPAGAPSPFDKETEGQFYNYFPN

B1: endogenous T-bet in mouse Th1 cells (other, UniProt Q9JKD8 1-530, looked up)
chain: MGIVEPGCGDMLTGTEPMPSDEGRGPGADQQHRFFYPEPGAQDPTDRRAGSSLGTPYSGGALVPAAPGRFLGSFAYPPRAQVAGFPGPGEFFPPPAGAEGYPPVDGYPAPDPRAGLYPGPREDYALPAGLEVSGKLRVALSNHLLWSKFNQHQTEMIITKQGRRMFPFLSFTVAGLEPTSHYRMFVDVVLVDQHHWRYQSGKWVQCGKAEGSMPGNRLYVHPDSPNTGAHWMRQEVSFGKLKLTNNKGASNNVTQMIVLQSLHKYQPRLHIVEVNDGEPEAACSASNTHVFTFQETQFIAVTAYQNAEITQLKIDNNPFAKGFRENFESMYASVDTSVPSPPGPNCQLLGGDPFSPLLSNQYPVPSRFYPDLPGQPKDMISQPYWLGTPREHSYEAEFRAVSMKPTLLPSAPGPTVPYYRGQDVLAPGAGWPVAPQYPPKMSPAGWFRPMRTLPMDPGLGSSEEQGSSPSLWPEVTSLQPEPSDSGLGEGDTKRRRISPYPSSGDSSSPAGAPSPFDKETEGQFYNYFPN
modifications: phosphoserine at S508 found by mass spectrometry in primary Th1 cells

Columns and labels:
[1] = target: T1, Flag-tagged T-bet (wild type), immunoprecipitated from 293T cells
[2] = target: T2, Flag-tagged T-bet S498A control mutant, immunoprecipitated from 293T cells
[3] = target: T3, Flag-tagged T-bet S508A mutant, immunoprecipitated from 293T cells
RelA (NF-kB p65) = conditions: ChIP real-time PCR; binding increase in T-bet-/- Th1 cells versus wt
[4] = target: endogenous RelA in mouse Th1 cells (mouse, UniProt Q04207 1-549); assay: cell-based or functional assay
Chain of endogenous RelA in mouse Th1 cells (Q04207 whole entry): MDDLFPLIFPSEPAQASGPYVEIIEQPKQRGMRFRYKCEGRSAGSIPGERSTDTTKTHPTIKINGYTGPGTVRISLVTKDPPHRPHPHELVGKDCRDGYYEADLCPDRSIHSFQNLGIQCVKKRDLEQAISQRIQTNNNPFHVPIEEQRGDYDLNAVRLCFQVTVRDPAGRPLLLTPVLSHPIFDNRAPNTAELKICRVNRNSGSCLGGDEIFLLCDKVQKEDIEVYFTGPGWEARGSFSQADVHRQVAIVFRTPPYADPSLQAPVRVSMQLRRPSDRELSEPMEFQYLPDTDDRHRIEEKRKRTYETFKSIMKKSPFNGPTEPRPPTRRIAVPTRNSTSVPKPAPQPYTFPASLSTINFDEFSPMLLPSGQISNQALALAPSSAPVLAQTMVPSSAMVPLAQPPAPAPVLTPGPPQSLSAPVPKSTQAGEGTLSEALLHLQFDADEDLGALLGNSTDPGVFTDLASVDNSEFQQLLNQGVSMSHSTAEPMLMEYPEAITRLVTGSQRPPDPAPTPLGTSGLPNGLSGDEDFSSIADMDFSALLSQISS

Molecule	in vitro phosphorylation of T-bet (γ-[32P]ATP, autoradiography) [1]	in vitro phosphorylation of T-bet (γ-[32P]ATP, autoradiography) [2]	in vitro phosphorylation of T-bet (γ-[32P]ATP, autoradiography) [3]	also measured
active ERK (recombinant)	CKI, but not active ERK, phosphorylated T-bet protein in vitro			
PKA (recombinant)	T-bet was also phosphorylated by PKA but with 1000-fold lesser efficiency than CKI	PKA-induced phosphorylation was not different among the wt, S508A and S498A T-bet proteins	PKA-induced phosphorylation was not different among the wt, S508A and S498A T-bet proteins	
IL-2 promoter chromatin (ChIP amplicon)				binding signal (RelA (NF-kB p65)): 4.5 fold
casein kinase I (recombinant)	CKI, but not active ERK, phosphorylated T-bet protein in vitro	CKI-mediated phosphorylation of the S508A mutant, but not the S498A control mutant, was dramatically reduced compared to wt	CKI-mediated phosphorylation of the S508A mutant, but not the S498A control mutant, was dramatically reduced compared to wt	
glycogen synthase kinase-3 (recombinant)				in vitro phosphorylation of T-bet by GSK-3 after prephosphorylation with CKI (γ-[32P]ATP) [1]: Hyperphosphorylation of T-bet by GSK-3 was apparent; in vitro phosphorylation of T-bet by GSK-3 after prephosphorylation with CKI (γ-[32P]ATP) [2]: GSK-3 induced wt levels of phosphorylation in the S498A mutant; in vitro phosphorylation of T-bet by GSK-3 after prephosphorylation with CKI (γ-[32P]ATP) [3]: GSK-3-mediated phosphorylation was markedly decreased in the S508A mutant
B1				IL-2 promoter binding of RelA by ChIP with real-time PCR, T-bet-/- versus wt Th1 cells [4]: 4.5 fold

Source: US20070128661A1 (Harvard, published 2007)
